# From the supplement of paper PMC7877785
# ± gives the uncertainty stated by the source.
# Test: self-splicing fitness, log relative to wild type (ln ratio); higher = more splicing; Tetrahymena group I intron in knt gene, E. coli kanamycin selection, DiMSum; sequences stand for … in CUCUCU…GGAGGGAAAAGUUAUCAGGCAUGCACCUGGUAGCUAGUCUUUAAACCAAUAGAUUGCAUCGGUUUAAAAGGCAAGACCGUCAAAUUGCGGGAAAGGGGUCAACAGCCGUUCAGUACCAAGUCUCAGGGGAAACUUUGAGAUGGCCUUGCAAAGGGUAUGGUAAUAAGCUGACGGACAUGGUCCUAACCACGCAGCCAAGUCCUAAGUCAACAGAUCUUCUGUUGAUAUGGAUGCAGUUCACAGACUAAAUGUCGGUCGGGGAAGAUGUAUUCUUCUCAUAAGAUAUAGUCGGACCUCUCCUUAAUGGGAGCUAGCGGAUGAAGUGAUGCAACACUGGAGCCGCUGGGAACUAAUUUGUAUGCGAAAGUAUAUUGAUUAGUUUUGGAGUACUCGUGGUCG
# In short: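 Six replicate transformations of E. coli BL21(DE3) with a pET-22b(+) library were grown overnight at 37°C or 30°C. The library randomised all eight P1ex-region intron nucleotides, the intron lying in the knt kanamycin-resistance gene, and plates were LB agar with or without 25 μg/mL kanamycin plus 100 μg/mL carbenicillin, 50 μM IPTG and 0.2% rhamnose. Pooled colonies were amplicon-sequenced on an Illumina HiSeq 2500, and fitness is the DiMSum error-weighted combination of wild-type-normalised replicate fold changes, kanamycin versus none.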
Sequence,self-splicing fitness (ln) (30 °C),self-splicing fitness (ln) (37 °C)
CGGAAGCAAUAUUACGUGUA,-3.19 ± 0.17,-3.6 ± 0.27
CGGAAGCAAUAUUACGUUGC,-3.59 ± 0.26,-2.69 ± 0.48
CGGCAGCAAUAUUACGAACC,-0.757 ± 0.33,-0.368 ± 0.37
CGGCAGCAAUAUUACGACCA,-0.307 ± 0.1,0.682 ± 0.14
CGGCAGCAAUAUUACGAGAC,-3.78 ± 0.22,-3.43 ± 0.35
CGGCAGCAAUAUUACGAGUC,-1.86 ± 0.34,-1.76 ± 0.25
CGGCAGCAAUAUUACGCACA,-0.39 ± 0.1,-0.122 ± 0.14
CGGCAGCAAUAUUACGCACU,-1.45 ± 0.086,-0.361 ± 0.1
CGGCAGCAAUAUUACGCGCU,-4.1 ± 0.25,-1.99 ± 0.25
CGGCAGCAAUAUUACGGACC,-2.09 ± 0.26,-1.26 ± 0.2
CGGCAGCAAUAUUACGGAGC,-3.37 ± 0.14,-3.3 ± 0.2
CGGCAGCAAUAUUACGGCAC,-2.58 ± 0.28,-2.21 ± 0.22
CGGCAGCAAUAUUACGGCAG,-0.677 ± 0.095,-0.796 ± 0.11
CGGCAGCAAUAUUACGGCGG,-1.26 ± 0.11,-0.79 ± 0.14
CGGCAGCAAUAUUACGGGGU,-3.58 ± 0.19,-3.28 ± 0.31
CGGCAGCAAUAUUACGGUAU,-3.82 ± 0.19,-3.18 ± 0.22
CGGCAGCAAUAUUACGUAGA,-2.33 ± 0.12,-1.19 ± 0.17
CGGCAGCAAUAUUACGUGCU,-3 ± 0.14,-1.63 ± 0.16
CGGCAGCAAUAUUACGUGUC,-3.89 ± 0.31,-2.6 ± 0.2
CGGCAGCAAUAUUACGUUAC,-3.4 ± 0.2,-3.3 ± 0.33
CGGCAGCAAUAUUACGUUGG,-2.38 ± 0.11,-1.46 ± 0.12
CGGGAGCAAUAUUACGAAUU,-3.16 ± 0.34,
CGGGAGCAAUAUUACGCCGU,-3.46 ± 0.47,
CGGGAGCAAUAUUACGCGGC,-2.4 ± 0.43,-1.77 ± 0.3
CGGGAGCAAUAUUACGCUAU,-3.6 ± 0.31,-2.64 ± 0.48

Sequence,self-splicing fitness (ln) (30 °C),self-splicing fitness (ln) (37 °C)
CGGGAGCAAUAUUACGCUGA,-1.34 ± 0.21,-2.14 ± 0.31
CGGGAGCAAUAUUACGCUGU,-2.76 ± 0.33,-2.43 ± 0.34
CGGGAGCAAUAUUACGGAAU,-4.07 ± 0.46,-1.42 ± 0.43
CGGGAGCAAUAUUACGGAGG,-3.27 ± 0.15,-3.12 ± 0.3
CGGGAGCAAUAUUACGGAUC,-3.09 ± 0.43,-2.07 ± 0.42
CGGGAGCAAUAUUACGGCCG,-3.09 ± 0.31,
CGGGAGCAAUAUUACGGCCU,-3.25 ± 0.31,-2.88 ± 0.44
CGGGAGCAAUAUUACGGCUG,-2.43 ± 0.25,-2.14 ± 0.34
CGGGAGCAAUAUUACGGGCG,-2.44 ± 0.31,-2.67 ± 0.41
CGGGAGCAAUAUUACGGGUA,-2.54 ± 0.21,-1.75 ± 0.2
CGGGAGCAAUAUUACGGUUA,-3.42 ± 0.25,-2.69 ± 0.29
CGGGAGCAAUAUUACGUGGA,-2.06 ± 0.15,-3.14 ± 0.23
CGGGAGCAAUAUUACGUGUU,-5.29 ± 0.38,-2.2 ± 0.25
CGGGAGCAAUAUUACGUUAG,-3.18 ± 0.26,-1.9 ± 0.29
CGGGAGCAAUAUUACGUUCG,-3.74 ± 0.47,-1.75 ± 0.27
CGGGAGCAAUAUUACGUUUG,-2.75 ± 0.17,-2.11 ± 0.19
CGGUAGCAAUAUUACGAACU,-1.3 ± 0.17,-0.755 ± 0.17
CGGUAGCAAUAUUACGAAGU,-2.86 ± 0.3,-1.85 ± 0.25
CGGUAGCAAUAUUACGAUAU,-3.58 ± 0.31,-1.33 ± 0.24
CGGUAGCAAUAUUACGAUGU,-0.932 ± 0.093,-0.763 ± 0.15
CGGUAGCAAUAUUACGCAUU,,-2.5 ± 0.24
CGGUAGCAAUAUUACGCCUA,-0.535 ± 0.14,-0.215 ± 0.11
CGGUAGCAAUAUUACGCCUG,-1.32 ± 0.13,-0.225 ± 0.11
CGGUAGCAAUAUUACGCGAU,-2.23 ± 0.35,-2.41 ± 0.44
